Key:
[1] = target: T1, MvaT (Pseudomonas aeruginosa PAO1) (UniProt Q9HW86)
T1 sequence: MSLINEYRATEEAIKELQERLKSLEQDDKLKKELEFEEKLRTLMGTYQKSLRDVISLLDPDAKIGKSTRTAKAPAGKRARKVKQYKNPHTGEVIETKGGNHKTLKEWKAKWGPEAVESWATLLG

[2] = target: T2, MvaT full-length (Pseudomonas aeruginosa PAO1?) (UniProt Q9HW86); experiment: EMSA; conditions: EMSA: 8 mM Tris pH 8.0, 15 mM HEPES pH 7.9, 40 mM NaCl, 40 mM KCl, 1.4 mM EDTA, 0.5 mM DTT, 9.95% glycerol, room temp, NMR: 50 mM Na phosphate, 50 mM NaCl
T2 sequence: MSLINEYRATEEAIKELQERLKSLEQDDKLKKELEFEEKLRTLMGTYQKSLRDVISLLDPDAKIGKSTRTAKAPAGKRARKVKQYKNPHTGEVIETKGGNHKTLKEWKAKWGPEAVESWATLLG

[3] = test system: MvaT full-length (Pseudomonas aeruginosa PAO1?); experiment: EMSA; conditions: EMSA: 8 mM Tris pH 8.0, 15 mM HEPES pH 7.9, 40 mM NaCl, 40 mM KCl, 1.4 mM EDTA, 0.5 mM DTT, 9.95% glycerol, room temp, NMR: 50 mM Na phosphate, 50 mM NaCl
[4] = test system: MvaT full-length (Pseudomonas aeruginosa PAO1?); experiment: competition; conditions: EMSA: 8 mM Tris pH 8.0, 15 mM HEPES pH 7.9, 40 mM NaCl, 40 mM KCl, 1.4 mM EDTA, 0.5 mM DTT, 9.95% glycerol, room temp, NMR: 50 mM Na phosphate, 50 mM NaCl
MvaTctd K108A = target: T3, MvaTctd K108A (Pseudomonas aeruginosa PAO1, UniProt Q9HW86 77-124, K108A); experiment: ITC; 283 K; EMSA: 8 mM Tris pH 8.0, 15 mM HEPES pH 7.9, 40 mM NaCl, 40 mM KCl, 1.4 mM EDTA, 0.5 mM DTT, 9.95% glycerol, room temp; NMR: 50 mM Na phosphate, 50 mM NaCl, pH 6.0, 298 K; ITC: 283 K, 0.15 mM DNA in cell, buffer not stated (protein purified in NMR buffer); conditions: protein: recombinant; tags: C-terminal His6; blunt, self-complementary
T3 chain: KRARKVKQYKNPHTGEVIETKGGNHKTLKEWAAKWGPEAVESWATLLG

MvaTctd R80A = target: T4, MvaTctd R80A (Pseudomonas aeruginosa PAO1, UniProt Q9HW86 77-124, R80A); experiment: as above; conditions: protein: recombinant; tags: C-terminal His6; blunt, self-complementary
T4 chain: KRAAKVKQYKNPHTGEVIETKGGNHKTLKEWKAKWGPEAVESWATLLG

MvaTctd K81A = target: T5, MvaTctd K81A (Pseudomonas aeruginosa PAO1, UniProt Q9HW86 77-124, K81A); experiment: NMR titration; similar to WT; EMSA: 8 mM Tris pH 8.0, 15 mM HEPES pH 7.9, 40 mM NaCl, 40 mM KCl, 1.4 mM EDTA, 0.5 mM DTT, 9.95% glycerol, room temp; NMR: 50 mM Na phosphate, 50 mM NaCl, pH 6.0, 298 K; ITC: 283 K, 0.15 mM DNA in cell, buffer not stated (protein purified in NMR buffer); conditions: protein: recombinant; tags: C-terminal His6; blunt, self-complementary
T5 chain: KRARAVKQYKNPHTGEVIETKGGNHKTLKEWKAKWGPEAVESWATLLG

MvaTctd K97A = target: T6, MvaTctd K97A (Pseudomonas aeruginosa PAO1, UniProt Q9HW86 77-124, K97A); experiment: as above; conditions: protein: recombinant; tags: C-terminal His6; blunt, self-complementary
T6 chain: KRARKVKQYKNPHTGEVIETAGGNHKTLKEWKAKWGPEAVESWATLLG

MvaTctd K102A = target: T7, MvaTctd K102A (Pseudomonas aeruginosa PAO1, UniProt Q9HW86 77-124, K102A); experiment: ITC; 283 K; slightly lower affinity, Kd +70%; EMSA: 8 mM Tris pH 8.0, 15 mM HEPES pH 7.9, 40 mM NaCl, 40 mM KCl, 1.4 mM EDTA, 0.5 mM DTT, 9.95% glycerol, room temp; NMR: 50 mM Na phosphate, 50 mM NaCl, pH 6.0, 298 K; ITC: 283 K, 0.15 mM DNA in cell, buffer not stated (protein purified in NMR buffer); conditions: protein: recombinant; tags: C-terminal His6; blunt, self-complementary
T7 chain: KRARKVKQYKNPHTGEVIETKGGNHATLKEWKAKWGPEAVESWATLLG

MvaTctd N100A = target: T8, MvaTctd N100A (Pseudomonas aeruginosa PAO1, UniProt Q9HW86 77-124, N100A); experiment: ITC; 283 K; EMSA: 8 mM Tris pH 8.0, 15 mM HEPES pH 7.9, 40 mM NaCl, 40 mM KCl, 1.4 mM EDTA, 0.5 mM DTT, 9.95% glycerol, room temp; NMR: 50 mM Na phosphate, 50 mM NaCl, pH 6.0, 298 K; ITC: 283 K, 0.15 mM DNA in cell, buffer not stated (protein purified in NMR buffer); conditions: protein: recombinant; tags: C-terminal His6; blunt, self-complementary
T8 chain: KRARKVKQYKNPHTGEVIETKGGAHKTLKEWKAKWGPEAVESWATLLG

MvaTctd K105A = target: T9, MvaTctd K105A (Pseudomonas aeruginosa PAO1, UniProt Q9HW86 77-124, K105A); experiment: as above; conditions: protein: recombinant; tags: C-terminal His6; blunt, self-complementary
T9 chain: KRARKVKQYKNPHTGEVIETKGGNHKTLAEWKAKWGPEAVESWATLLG

MvaTctd WT = target: T10, MvaTctd WT (Pseudomonas aeruginosa PAO1, UniProt Q9HW86 77-124); experiment: as above; conditions: protein: recombinant; tags: C-terminal His6; blunt, self-complementary
T10 chain: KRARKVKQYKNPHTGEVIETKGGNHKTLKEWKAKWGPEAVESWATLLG

TATTATAA (double strand) [8-mer TATTATAA]
binding signal (PBM E-score (-0.5 to 0.5)) [1]: 0.48

ATATTAAT (double strand) [8-mer ATATTAAT]
binding signal (PBM E-score (-0.5 to 0.5)) [1]: 0.484

AATATATA (double strand) [8-mer AATATATA]
binding signal (PBM E-score (-0.5 to 0.5)) [1]: 0.486

CCGCAGGTGGCTGAACAGGCCGTGCGCTGGCTGGTCGAGCTGCAGGGCGGCGCCGACGACGAACGCCTGCGCCAGGCCTGGCAGCGCTGGCGCCAGGCGGCCCCGGAACACGAGCAGGCCTGGCGCCACATCGAGGCGGTCAACCAGCGCCTGGCCGGGATAGGCACGCCACTGGCCCTGGCCGCCATCAACGCACCGCATTCG (double strand) [PA3900 204 bp fragment]
Kd [2]: 154 nM

ATATAATA (double strand) [8-mer ATATAATA]
binding signal (PBM E-score (-0.5 to 0.5)) [1]: 0.484

ATATATAA (double strand) [8-mer ATATATAA]
binding signal (PBM E-score (-0.5 to 0.5)) [1]: 0.487

AATATATT (double strand) [8-mer AATATATT]
binding signal (PBM E-score (-0.5 to 0.5)) [1]: 0.485

PA3900 204 bp fragment
Kd ([3]; apparent Kd): 154 nM

ATATATAT (double strand) [8-mer ATATATAT]
binding signal (PBM E-score (-0.5 to 0.5)) [1]: 0.491

TATATTAA (double strand) [8-mer TATATTAA]
binding signal (PBM E-score (-0.5 to 0.5)) [1]: 0.482

TATTAATA (double strand) [8-mer TATTAATA]
binding signal (PBM E-score (-0.5 to 0.5)) [1]: 0.481

TATATATA (double strand) [8-mer TATATATA]
binding signal (PBM E-score (-0.5 to 0.5)) [1]: 0.493

AAATATAT (double strand) [8-mer AAATATAT]
binding signal (PBM E-score (-0.5 to 0.5)) [1]: 0.482

TTAATTAA (double strand) [8-mer TTAATTAA]
binding signal (PBM E-score (-0.5 to 0.5)) [1]: 0.481

PA3900 204 bp fragment, unlabeled
binding (fold molar excess) [4]: > 200

ATATATTA (double strand) [8-mer ATATATTA]
binding signal (PBM E-score (-0.5 to 0.5)) [1]: 0.489

cupA1 promoter 340 bp
Kd [3]: 57 nM

AATATTAA (double strand) [8-mer AATATTAA]
binding signal (PBM E-score (-0.5 to 0.5)) [1]: 0.478

TTATATAA (double strand) [8-mer TTATATAA]
binding signal (PBM E-score (-0.5 to 0.5)) [1]: 0.483

B1: 3AT (dsDNA)
DNA 1: CGCATATATGCG
DNA 2: CGCATATATGCG
binding signal (MvaTctd K108A): > 10 fold Kd increase vs WT
binding signal (MvaTctd R80A): > 10 fold Kd increase vs WT
binding result (MvaTctd K81A): binds
binding result (MvaTctd K97A): binds
binding signal (MvaTctd K102A): ~1.7 fold Kd increase vs WT
binding signal (MvaTctd N100A): > 3 fold Kd increase vs WT
binding signal (MvaTctd K105A): > 3 fold Kd increase vs WT
Kd (MvaTctd WT): ~10700 nM

B2: GC-rich d(CGCGCGCG)2 (dsDNA)
DNA 1: CGCGCGCG
DNA 2: CGCGCGCG
Kd (MvaTctd WT): ~360000 nM
